From paper PMC4600729 come the findings set out here.

The target of assay [1] is taxol-stabilized microtubules (polymer of alpha/beta-tubulin), immobilized. The experiment in a line: single-molecule TIRF microscopy; GFP-labelled motor (25 pM) in 1 mM ATP on immobilized taxol-stabilized microtubules; pause lifetimes at plus ends, exponential fit; BRB80 pH 6.8.
The target is the same in assay [2]. The assay is described as follows: single-molecule TIRF microscopy; Kin5_18GFP landing on and dissociating from the lattice of an immobilized microtubule in 1 mM ADP; exponential fit of binding durations.
For assay [3] the target is unchanged. The experiment in a line: single-molecule TIRF microscopy; spiking experiment, crowded conditions: pM GFP-labelled motor mixed with 15-25 nM unlabelled motor; binding durations at plus ends of taxol-stabilized microtubules.

Chain of taxol-stabilized microtubules (polymer of alpha/beta-tubulin), immobilized (P68363 whole entry, chain 1 of 2): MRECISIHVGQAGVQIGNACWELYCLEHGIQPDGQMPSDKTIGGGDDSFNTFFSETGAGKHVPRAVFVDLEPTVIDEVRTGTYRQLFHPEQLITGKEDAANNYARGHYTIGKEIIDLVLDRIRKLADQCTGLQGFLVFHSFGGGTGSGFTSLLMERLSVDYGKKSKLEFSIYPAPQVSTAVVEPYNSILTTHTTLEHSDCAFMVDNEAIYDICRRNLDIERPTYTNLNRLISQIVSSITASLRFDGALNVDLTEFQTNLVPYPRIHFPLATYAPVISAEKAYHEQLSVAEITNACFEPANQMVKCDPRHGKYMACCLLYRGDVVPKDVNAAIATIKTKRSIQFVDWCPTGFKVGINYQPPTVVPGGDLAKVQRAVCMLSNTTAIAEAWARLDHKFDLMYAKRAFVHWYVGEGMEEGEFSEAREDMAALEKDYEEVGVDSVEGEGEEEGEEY
Chain of taxol-stabilized microtubules (polymer of alpha/beta-tubulin), immobilized (A8K068 whole entry, chain 2 of 2, further chain): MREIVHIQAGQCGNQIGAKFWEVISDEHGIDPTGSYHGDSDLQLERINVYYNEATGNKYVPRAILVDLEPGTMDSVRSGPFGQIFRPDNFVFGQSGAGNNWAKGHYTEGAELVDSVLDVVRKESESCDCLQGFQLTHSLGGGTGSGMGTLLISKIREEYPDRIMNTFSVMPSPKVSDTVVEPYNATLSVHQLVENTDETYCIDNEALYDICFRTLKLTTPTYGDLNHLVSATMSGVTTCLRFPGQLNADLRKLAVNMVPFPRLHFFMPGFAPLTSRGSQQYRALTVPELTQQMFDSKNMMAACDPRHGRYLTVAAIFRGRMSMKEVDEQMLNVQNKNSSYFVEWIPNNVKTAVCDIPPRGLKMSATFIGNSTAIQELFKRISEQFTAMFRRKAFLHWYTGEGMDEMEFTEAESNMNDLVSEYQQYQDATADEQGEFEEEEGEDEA

On to “Kin5_18GFP (dimeric kinesin-5: motor domain and native 18-residue neck linker of Xenopus laevis Eg5 fused to the proximal coiled coil of Drosophila conventional kinesin heavy chain, GFP-tagged)”, for which the mean pause duration at plus ends in assay [1] came out at 7 s. This substance had a mean binding duration on the microtubule lattice in 1 mM ADP in assay [2] of 1.07 s. Besides, in assay [3], the end duration at plus ends under crowded conditions came out at 2.26 s.
